Assay results reported in article PMC5935067.

Target: microtubules polymerised from bovine brain tubulin (bovine), Q6B856
Assay: TIRF microscopy, single-molecule dwell-time analysis

- dwell time at growing microtubule tips, with 10 nM EB1: 1.8 s
- dwell time of lattice-binding events, with 10 nM EB1: 0.74 s
- mean dwell time on microtubule tips, without EB1: 0.67 s
- mean dwell time on the microtubule lattice, without EB1: 0.49 s
- tip association rate, with 10 nM EB1: 5.3e+08 M⁻¹ s⁻¹
- tip association rate, without EB1: 2.9e+08 M⁻¹ s⁻¹
B1: His-CLASP2γ-eGFP-StrepII (full-length human CLASP2γ with C-terminal eGFP) (natural protein)
chain: MAMGDDKSFDDEESVDGNRPSSAASAFKVPAPKTSGNPANSARKPGSAGGPKVGGASKEGGAGAVDEDDFIKAFTDVPSIQIYSSRELEETLNKIREILSDDKHDWDQRANALKKIRSLLVAGAAQYDCFFQHLRLLDGALKLSAKDLRSQVVREACITVAHLSTVLGNKFDHGAEAIVPTLFNLVPNSAKVMATSGCAAIRFIIRHTHVPRLIPLITSNCTSKSVPVRRRSFEFLDLLLQEWQTHSLERHAAVLVETIKKGIHDADAEARVEARKTYMGLRNHFPGEAETLYNSLEPSYQKSLQTYLKSSGSVASLPQSDRSSSSSQESLNRPFSSKWSTANPSTVAGRVSAGSSKASSLPGSLQRSRSDIDVNAAAGAKAHHAAGQSVRSGRLGAGALNAGSYASLEDTSDKLDGTASEDGRVRAKLSAPLAGMGNAKADSRGRSRTKMVSQSQPGSRSGSPGRVLTTTALSTVSSGVQRVLVNSASAQKRSKIPRSQGCSREASPSRLSVARSSRIPRPSVSQGCSREASRESSRDTSPVRSFQPLASRHHSRSTGALYAPEVYGASGPGYGISQSSRLSSSVSAMRVLNTGSDVEEAVADALKKPARRRYESYGMHSDDDANSDASSACSERSYSSRNGSIPTYMRQTEDVAEVLNRCASSNWSERKEGLLGLQNLLKNQRTLSRVELKRLCEIFTRMFADPHGKRVFSMFLETLVDFIQVHKDDLQDWLFVLLTQLLKKMGADLLGSVQAKVQKALDVTRESFPNDLQFNILMRFTVDQTQTPSLKVKVAILKYIETLAKQMDPGDFINSSETRLAVSRVITWTTEPKSSDVRKAAQSVLISLFELNTPEFTMLLGALPKTFQDGATKLLHNHLRNTGNGTQSSMGSPLTRPTPRSPANWSSPLTSPTNTSQNTLSPSAFDYDTENMNSEDIYSSLRGVTEAIQNFSFRSQEDMNEPLKRDSKKDDGDSMCGGPGMSDPRAGGDATDSSQTALDNKASLLHSMPTHSSPRSRDYNPYNYSDSISPFNKSALKEAMFDDDADQFPDDLSLDHSDLVAELLKELSNHNERVEERKIALYELMKLTQEESFSVWDEHFKTILLLLLETLGDKEPTIRALALKVLREILRHQPARFKNYAELTVMKTLEAHKDPHKEVVRSAEEAASVLATSISPEQCIKVLCPIIQTADYPINLAAIKMQTKVIERVSKETLNLLLPEIMPGLIQGYDNSESSVRKACVFCLVAVHAVIGDELKPHLSQLTGSKMKLLNLYIKRAQTGSGGADPTTDVSGQS
modifications: not checked
